These results are taken from publication PMC12846278, “Efficient Expression of Lactone Hydrolase Cr2zen for Scalable Zearalenone Degradation in Pichia pastoris” (Toxins, 2025).

Broadly, the Km is the concentration of substrate that gives half-maximal velocity.

The series relates to T1, C[C@H]1CCCC(=O)CCC/C=C/c2cc(O)cc(O)c2C(=O)O1.
T1 construct: full-length ORF (792 bp, 264 aa, 29 kDa) in pPICZalphaA with alpha-factor secretion signal, secreted from Pichia pastoris X33; ~35 kDa band for Ser-Cr2
Briefly: HPLC, ZEN degradation; Lineweaver-Burk. The class given is biochemical, Clonostachys rosea. As to conditions: 20 mM Tris-HCl pH 8.0, 30 °C.

For Cr2zen (Clonostachys rosea), the Michaelis constant (Km) is listed as 75.9 ± 2.1 µM.
